Results on 94 variants are retold here after the supplement of paper PMC10567573.

The labels stand for the following.
B1: FCHO1 (parent)
chain: FTSSPSPFSSSSPENVEDSGLDSP
B2: FAM107A (parent)
chain: HRRGLGVDSKPELQRVLEHRRRNQ
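Further: lentivirally expressed fusions sorted by FACS into six bins by GFP to DsRed ratio, PSI derived from sequencing read proportions per bin multiplied by bin number.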

One data set covers variants of B1. As to the kind of experiment: protein stability index of a GFP-peptide fusion (GPS, HEK-293T) (PSI 1-6); higher = more stable. Particulars: c terminus: a fixed tail appended.
In the case of FTSNPSPFSSSSPENVEDSGLDSP [S4N], the protein stability index amounted to 2.06.
Still for that read-out and setting: to FTSDPSPFSSSSPENVEDSGLDSP [S4D] belongs 2.03; to FTSEPSPFSSSSPENVEDSGLDSP [S4E], 3.14.
The same measure, in the same setting: to FTSTPSPFSSSSPENVEDSGLDSP [S4T] belongs 1.93; to FTSRPSPFSSSSPENVEDSGLDSP [S4R], 1.42; to FTSCPSPFSSSSPENVEDSGLDSP [S4C], 2.35.
With FTSWPSPFSSSSPENVEDSGLDSP [S4W], the protein stability index turned out to be 3.58.
As for FTSMPSPFSSSSPENVEDSGLDSP [S4M], the protein stability index came to 1.73.
Still for that read-out and setting: with FTSPPSPFSSSSPENVEDSGLDSP [S4P] the figure was 3.53; with FTSKPSPFSSSSPENVEDSGLDSP [S4K], 2.13.
Still for that read-out and setting: with FTSLPSPFSSSSPENVEDSGLDSP [S4L] the figure was 2.31; with FTSFPSPFSSSSPENVEDSGLDSP [S4F], 2.9; with FTSVPSPFSSSSPENVEDSGLDSP [S4V], 1.8.
FTSAPSPFSSSSPENVEDSGLDSP [S4A]: the protein stability index was found to be 1.71.
The same measure, in the same setting: to FTSGPSPFSSSSPENVEDSGLDSP [S4G] belongs 2; to FTSIPSPFSSSSPENVEDSGLDSP [S4I], 2.19; to FTSQPSPFSSSSPENVEDSGLDSP [S4Q], 2.14.
On the same count and under the same terms, to FTSYPSPFSSSSPENVEDSGLDSP [S4Y] belongs 1.95; to FTSHPSPFSSSSPENVEDSGLDSP [S4H], 1.91.
On the same count and under the same terms, with FWSSPSPFSSSSPENVEDSGLDSP [T2W] the figure was 3.64.
In the case of FISSPSPFSSSSPENVEDSGLDSP [T2I], the protein stability index was 2.14.
FESSPSPFSSSSPENVEDSGLDSP [T2E]: the protein stability index came out at 5.36.
On the same count and under the same terms, to FASSPSPFSSSSPENVEDSGLDSP [T2A] belongs 2.26.
On the same count and under the same terms, with FQSSPSPFSSSSPENVEDSGLDSP [T2Q] the figure was 1.58.
Same read-out and setting: to FSSSPSPFSSSSPENVEDSGLDSP [T2S] belongs 2.86; to FCSSPSPFSSSSPENVEDSGLDSP [T2C], 2.02; to FGSSPSPFSSSSPENVEDSGLDSP [T2G], 2.71.
For FNSSPSPFSSSSPENVEDSGLDSP [T2N], the protein stability index was determined as 3.96.
Same read-out and setting: to FDSSPSPFSSSSPENVEDSGLDSP [T2D] belongs 4.91.
Same read-out and setting: to FLSSPSPFSSSSPENVEDSGLDSP [T2L] belongs 3.48; to FKSSPSPFSSSSPENVEDSGLDSP [T2K], 5.53.
Regarding FRSSPSPFSSSSPENVEDSGLDSP [T2R], the protein stability index worked out at 5.01.
On the same count and under the same terms, with FVSSPSPFSSSSPENVEDSGLDSP [T2V] the figure was 2.93; with FFSSPSPFSSSSPENVEDSGLDSP [T2F], 4.58; with FYSSPSPFSSSSPENVEDSGLDSP [T2Y], 4.84.
FMSSPSPFSSSSPENVEDSGLDSP [T2M]: the protein stability index was 3.48.
On the same count and under the same terms, with FHSSPSPFSSSSPENVEDSGLDSP [T2H] the figure was 2.02.
On to FPSSPSPFSSSSPENVEDSGLDSP [T2P], for which the protein stability index came out at 2.65.
On the same count and under the same terms, to WTSSPSPFSSSSPENVEDSGLDSP [F1W] belongs 5.16; to DTSSPSPFSSSSPENVEDSGLDSP [F1D], 5.61; to YTSSPSPFSSSSPENVEDSGLDSP [F1Y], 1.88.
The same measure, in the same setting: to GTSSPSPFSSSSPENVEDSGLDSP [F1G] belongs 5.46; to ATSSPSPFSSSSPENVEDSGLDSP [F1A], 5.3; to QTSSPSPFSSSSPENVEDSGLDSP [F1Q], 5.16.
On the same count and under the same terms, to ITSSPSPFSSSSPENVEDSGLDSP [F1I] belongs 5.67; to ETSSPSPFSSSSPENVEDSGLDSP [F1E], 5.62.
For the variant VTSSPSPFSSSSPENVEDSGLDSP [F1V], the protein stability index stood at 5.51.
Still for that read-out and setting: with LTSSPSPFSSSSPENVEDSGLDSP [F1L] the figure was 5.78.
Still for that read-out and setting: with PTSSPSPFSSSSPENVEDSGLDSP [F1P] the figure was 5.41.
The same measure, in the same setting: with MTSSPSPFSSSSPENVEDSGLDSP [F1M] the figure was 5.34.
As for KTSSPSPFSSSSPENVEDSGLDSP [F1K], the protein stability index was determined as 5.56.
NTSSPSPFSSSSPENVEDSGLDSP [F1N]: the protein stability index was 5.29.
Still for that read-out and setting: to TTSSPSPFSSSSPENVEDSGLDSP [F1T] belongs 5.38; to STSSPSPFSSSSPENVEDSGLDSP [F1S], 5.49; to RTSSPSPFSSSSPENVEDSGLDSP [F1R], 5.69.
The same measure, in the same setting: with HTSSPSPFSSSSPENVEDSGLDSP [F1H] the figure was 4.74.
Still for that read-out and setting: with CTSSPSPFSSSSPENVEDSGLDSP [F1C] the figure was 5.43; with FTVSPSPFSSSSPENVEDSGLDSP [S3V], 2.05; with FTMSPSPFSSSSPENVEDSGLDSP [S3M], 2.38.
Take FTTSPSPFSSSSPENVEDSGLDSP [S3T]: the protein stability index was determined as 1.87.
Still for that read-out and setting: to FTESPSPFSSSSPENVEDSGLDSP [S3E] belongs 2.79.
The same measure, in the same setting: to FTDSPSPFSSSSPENVEDSGLDSP [S3D] belongs 2.7; to FTWSPSPFSSSSPENVEDSGLDSP [S3W], 2.61.
Take FTQSPSPFSSSSPENVEDSGLDSP [S3Q]: the protein stability index was determined as 2.42.
As for FTGSPSPFSSSSPENVEDSGLDSP [S3G], the protein stability index worked out at 1.38.
With FTASPSPFSSSSPENVEDSGLDSP [S3A], the protein stability index is 2.26.
The same measure, in the same setting: to FTRSPSPFSSSSPENVEDSGLDSP [S3R] belongs 3.59.
Still for that read-out and setting: to FTLSPSPFSSSSPENVEDSGLDSP [S3L] belongs 3.8; to FTFSPSPFSSSSPENVEDSGLDSP [S3F], 2.6; to FTHSPSPFSSSSPENVEDSGLDSP [S3H], 2.32.
Still for that read-out and setting: with FTKSPSPFSSSSPENVEDSGLDSP [S3K] the figure was 3.48; with FTCSPSPFSSSSPENVEDSGLDSP [S3C], 2.01; with FTNSPSPFSSSSPENVEDSGLDSP [S3N], 2.71.
Regarding FTPSPSPFSSSSPENVEDSGLDSP [S3P], the protein stability index amounted to 2.52.
The same measure, in the same setting: with FTISPSPFSSSSPENVEDSGLDSP [S3I] the figure was 3.05; with FTYSPSPFSSSSPENVEDSGLDSP [S3Y], 2.85; with FTSSSSPFSSSSPENVEDSGLDSP [P5S], 2.67.
The same measure, in the same setting: with FTSSQSPFSSSSPENVEDSGLDSP [P5Q] the figure was 2.16; with FTSSDSPFSSSSPENVEDSGLDSP [P5D], 2.43; with FTSSASPFSSSSPENVEDSGLDSP [P5A], 1.88.
Still for that read-out and setting: with FTSSFSPFSSSSPENVEDSGLDSP [P5F] the figure was 2.32.
As for FTSSNSPFSSSSPENVEDSGLDSP [P5N], the protein stability index was found to be 2.09.
On the same count and under the same terms, with FTSSTSPFSSSSPENVEDSGLDSP [P5T] the figure was 1.69; with FTSSKSPFSSSSPENVEDSGLDSP [P5K], 2.31; with FTSSHSPFSSSSPENVEDSGLDSP [P5H], 2.23.
The same measure, in the same setting: with FTSSMSPFSSSSPENVEDSGLDSP [P5M] the figure was 2.02; with FTSSRSPFSSSSPENVEDSGLDSP [P5R], 2.08; with FTSSISPFSSSSPENVEDSGLDSP [P5I], 1.81.
Still for that read-out and setting: to FTSSLSPFSSSSPENVEDSGLDSP [P5L] belongs 1.91.
For FTSSCSPFSSSSPENVEDSGLDSP [P5C], the protein stability index was 1.96.
Same read-out and setting: with FTSSESPFSSSSPENVEDSGLDSP [P5E] the figure was 2.04; with FTSSGSPFSSSSPENVEDSGLDSP [P5G], 2.06.

A further data set covers variants of B2. The data set is described as above. Particulars: c terminus: a fixed tail appended.
With HRRGLGVDSKPELQRVLEHRRRNN [Q24N], the protein stability index amounted to 4.19.
Same read-out and setting: with HRRGLGVDSKPELQRVLEHRRRNY [Q24Y] the figure was 2.79.
